Like-named read-outs stand apart in the source and are kept apart here.

One may read the Kd as the free concentration of one partner at which half of the binding sites on the other are occupied at equilibrium, for simple one-to-one binding.

The target in experiment [1] is RSV P D95A (untagged, from pP) (human respiratory syncytial virus, strain Long) (UniProt P12579).
For experiment [2], the target named is RSV P D110A (untagged, from pP) (human respiratory syncytial virus, strain Long) (UniProt P12579).
The target in experiment [3] is P (Human respiratory syncytial virus) (UniProt P03421). Nature of the experiment: ITC. The following applies: cited from earlier work.
For experiment [4] the target is unchanged. The conditions noted are these: cited from earlier work.

For the substance “RSV M2-1 expressed in BSRT7/5 cells, unphosphorylated form (from UniProt P04545 1-194) (natural protein)”, the minigenome activity (firefly luciferase, pM/Luc) in BSRT7/5 cells in experiment [1] and in experiment [2] was 50 % decrease in each case.

In the case of M2-1 (from UniProt P04545), the equilibrium dissociation constant (Kd) was 3000 nM in experiment [3] and 8.1 nM in experiment [4].
